Data from US10568344B2, “Methods of improving animal performance” (Novozymes A/S, priority 2015, dated 2020).
Marks after values point to notes of the source that are not given here.

Legend:
Bacteroidales = experiment: Microbiota analysis of broiler trial 4 (16S rRNA), Bacteroidales; type: in vivo, chicken; design: key to Observed shift compared to the control group, Significance: Significant change (+++), padj < 0.05; Numerical change (+); conditions: 50 ppm
Faecalibacterium = experiment: Microbiota analysis of broiler trial 4 (16S rRNA), Faecalibacterium; type: in vivo, chicken; design: key to Observed shift compared to the control group, Significance: Significant change (+++), padj < 0.05; Numerical change (+); conditions: 50 ppm
[1] = In vivo broiler trial 3, growth performance; design: species or system male broiler chickens; Motality: unit not given here
Protocol: The in vivo trial was carried out as described in example 7, except the feed was supplemented with the GH25 lysozyme (SEQ ID NO: 1) at 12.5 or 25 mg per kg feed, the GH24 lysozyme (SEQ ID NO: 4) at 12.5 or 25 mg per kg feed or with Avilamycin at an inclusion level of 10 mg/kg. No additional enzymes (e.g. phytase) were added to the feed. The experimental diets (Starter, Grower and Finisher) were based on soybean meal, wheat and rye (12%) as main ingredients (Table 8). The diets were formulated to contain 225 g crude protein and 12.5 MJ/kg MEN for the starter period, 215 g crude protein and 12.8 MJ/kg MEN for the grower period and 205 g crude protein and 13.0 MJ/kg MEN for the finisher period.

[2] = tested on: Micrococcus lysodeikticus ATTC No. 4698; experiment: Lysozyme activity turbidity assay (optical density drop); conditions: pH 4
[3] = In vivo piglet trial, growth performance; design: species or system weaned piglets
Protocol: The trial was performed from Oct. 23 to Dec. 4, 2014 at the Research Center for Animal Nutrition (DSM Nutritional Products France, F-68305 Village-Neuf) according to the official French guidelines for experiments with live animals. One hundred and four castrated male crossbred (Large-White (female)×Redon (male)) weaned piglets having 28 days of age supplied by the commercial farm “[…] du Rhin” located in Balgau (France), were used in a 42-day experiment. The initial bodyweight of the piglets was 7.88±0.675 kg. They were sorted by body weight into 32 groups of 3 or 4 piglets and randomly allotted to each dietary treatment. Each group of animals was placed in one flat-deck cages and allocated to one of the different treatments. Each treatment was replicated with 8 cages using a total of 26 animals (6 cages of 3 animals/treatment and 2 cages of 4 animals/treatment) per treatment. […] Animals were housed in an environmentally controlled room. Room temperature was initially 27° C. and was lowered weekly by about 2° C. until 21-22° C. and relative humidity percentage was 50%. The experimental diets (Pre-Starter and Starter) were fed ad libitum in two feeding phases from day 0 to 14 (phase 1, Pre-starter) and day 14 to 42 (phase 2, Starter). The ingredient composition and the calculated nutrient levels of the experimental diets for phases 1 and 2 are presented in table 11. Both diets were formulated to meet the animals' requirements according NRC (2012) and were fed in pelleted form. Pelleting conditions were at 70° C. for 30 seconds. […] No additional enzymes (e.g. phytase) were added to the feed. […] Appropriate amount of the liquid preparations of lysozyme was diluted in water and sprayed onto the respective pelleted feed to get the final concentrations in the feed corresponding to the different treatments. For procedural balance of all treatments the same volume of water were also sprayed onto the pellets of the control diets. Body weight of the individual animals and feed consumption per pen were recorded on days 14 and 42 of the study. […] The experimental unit was the piglet, except for ADFI and FCR which were measured by cage, and in both cases, treatment was used as class variable. One-factorial ANOVA and Student-Newman-Keuls test was used to assess differences among means in treatment groups.

[4] = Finisher (d 36-42), 12.5 mg/kg feed
[5] = Finisher (d 36-42), 25 mg/kg feed
[6] = Grower (d 22-36), 12.5 mg/kg feed
[7] = Grower (d 22-36), 25 mg/kg feed
[8] = Starter (d 1-22), 12.5 mg/kg feed
[9] = Starter (d 1-22), 25 mg/kg feed
[10] = Whole period (d 1-42), 12.5 mg/kg feed
[11] = Whole period (d 1-42), 25 mg/kg feed

B1: SEQ ID NO: 1: mature amino acid sequence of a wild type GH25 lysozyme from Acremonium alcalophilum with N-terminal SPIRR (protein)
chain: SPIRRRIPGFDISGWQPTTDFARAYANGDRFVYIKATEGTTFKSSAFSRQYTGATQNGFIRGAYHFAQPAASSGAAQARYFASNGGGWSKDGITLPGALDIEYNPNGATCYGLSQSAMVNWIEDFVTTYHGITSRWPVIYTTTDWWTQCTGNSNRFANRCPLWIARYASSVGTLPNGWGFYTFWQYNDKYPQGGDSNWFNGDASRLRALANGD
modifications: Wild type sequence with N-terminal SPIRR
- Observed shift compared to the control group, Significance (Bacteroidales; Order level (Bacteroidales)): +
- Bacteroidales Change vs control (Bacteroidales; order level): −15.8551
- Bacteroidales Ratio vs control (Bacteroidales; order level): 0.7538
- Bacteroidales abundance, Lysozyme treatment (Bacteroidales; order level, ceca content): 48.5437
- Observed shift compared to the control group, Significance (Faecalibacterium; Genus level (Faecalibacterium)): +
- Observed shift compared to the control group, Significance (Faecalibacterium; OTU level (Faecalibacterium species)): +++ (Significant change (+++), padj < 0.05)
- OTU #27 (Faecalibacterium) Change vs control (Faecalibacterium; OTU level): 3.45
- OTU #27 (Faecalibacterium) Ratio vs control (Faecalibacterium; OTU level): 16.53
- OTU #27 (Faecalibacterium) abundance, Lysozyme treatment (Faecalibacterium; OTU level, ceca content): 3.67
- Faecalibacterium Change vs control (Faecalibacterium; genus level): 5.65
- Faecalibacterium Ratio vs control (Faecalibacterium; genus level): 4.04
- Faecalibacterium abundance, Lysozyme treatment (Faecalibacterium; genus level, ceca content): 7.50
- Benefit over the NC diet ([1]; 12.5 mg/kg): did not show any benefit
- FCR [1, 4]: 1.953
- FCR, Relative to C (%) [1, 4]: 99.6%
- Feed intake [1, 4]: 1544 g/b
- Feed intake, Relative to C (%) [1, 4]: 103.8%
- Weight gain [1, 4]: 794 g/b
- Weight gain, Relative to C (%) [1, 4]: 104.2%
- FCR [1, 5]: 1.968
- FCR, Relative to C (%) [1, 5]: 100.4%
- Feed intake [1, 5]: 1522 g/b
- Feed intake, Relative to C (%) [1, 5]: 102.3%
- Weight gain [1, 5]: 775 g/b
- Weight gain, Relative to C (%) [1, 5]: 101.8%
- FCR [1, 6]: 1.734
- FCR, Relative to C (%) [1, 6]: 100.6%
- Feed intake [1, 6]: 2365 g/b
- Feed intake, Relative to C (%) [1, 6]: 103.5%
- Weight gain [1, 6]: 1365 g/b
- Weight gain, Relative to C (%) [1, 6]: 102.8%
- FCR [1, 7]: 1.692
- FCR, Relative to C (%) [1, 7]: 98.2%
- Feed intake [1, 7]: 2308 g/b
- Feed intake, Relative to C (%) [1, 7]: 101.0%
- Weight gain [1, 7]: 1364 g/b
- Weight gain, Relative to C (%) [1, 7]: 102.7%
- FCR [1, 8]: 1.466
- FCR, Relative to C (%) [1, 8]: 101.8%
- Feed intake [1, 8]: 1621 g/b
- Feed intake, Relative to C (%) [1, 8]: 102.7%
- Weight gain [1, 8]: 1106 g/b
- Weight gain, Relative to C (%) [1, 8]: 100.9%
- FCR [1, 9]: 1.413
- FCR, Relative to C (%) [1, 9]: 98.1%
- Feed intake [1, 9]: 1596 g/b
- Feed intake, Relative to C (%) [1, 9]: 101.1%
- Weight gain [1, 9]: 1129 g/b
- Weight gain, Relative to C (%) [1, 9]: 103.0%
- EPEF [1, 10]: 398
- EPEF, Relative to C (%) [1, 10]: 95.2%
- FCR [1, 10]: 1.695
- FCR, Relative to C (%) [1, 10]: 100.9%
- Feed intake [1, 10]: 5529 g/b
- Feed intake, Relative to C (%) [1, 10]: 103.3%
- Motality [1, 10]: 13.1
- Weight gain [1, 10]: 3264 g/b
- Weight gain, Relative to C (%) [1, 10]: 102.5%
- EPEF [1, 11]: 428
- EPEF, Relative to C (%) [1, 11]: 102.4%
- FCR [1, 11]: 1.660
- FCR, Relative to C (%) [1, 11]: 98.8%
- Feed intake [1, 11]: 5426 g/b
- Feed intake, Relative to C (%) [1, 11]: 101.4%
- Motality [1, 11]: 8.8
- Weight gain [1, 11]: 3269 g/b
- Weight gain, Relative to C (%) [1, 11]: 102.6%
- EPEF improvement compared to NC diet ([1]; whole period, 25 mg/kg): 1.7%
- FCR improvement compared to NC diet ([1]; whole period, 25 mg/kg): 1.4%
- Lysozyme activity as measured by Optical Density Drop [2]: + (pH 4)
- ADFI, % relative NC ([3]; day 0-14, 50 ppm): 90.0%
- ADFI, Mean ([3]; day 0-14, 50 ppm): 324 g/day
- ADWG, % relative NC ([3]; day 0-14, 50 ppm): 96.2%
- ADWG, Mean ([3]; day 0-14, 50 ppm): 279 g/day
- FCR, % relative NC ([3]; day 0-14, 50 ppm): 94.4%
- FCR, Mean ([3]; day 0-14, 50 ppm): 1.170^a
- ADFI, % relative NC ([3]; day 0-42, 50 ppm): 93.1%
- ADFI, Mean ([3]; day 0-42, 50 ppm): 683^a g/d
- ADWG, % relative NC ([3]; day 0-42, 50 ppm): 102.4%
- ADWG, Mean ([3]; day 0-42, 50 ppm): 511 g/day
- EPEF, % relative NC ([3]; day 0-42, 50 ppm): 113.0%
- EPEF, Mean ([3]; day 0-42, 50 ppm): 383
- FCR, % relative NC ([3]; day 0-42, 50 ppm): 90.4%
- FCR, Mean ([3]; day 0-42, 50 ppm): 1.341^a
- ADFI, % relative NC ([3]; day 14-42, 50 ppm): 92.7%
- ADFI, Mean ([3]; day 14-42, 50 ppm): 862^a g/d
- ADWG, % relative NC ([3]; day 14-42, 50 ppm): 104.0%
- ADWG, Mean ([3]; day 14-42, 50 ppm): 627 g/day
- FCR, % relative NC ([3]; day 14-42, 50 ppm): 89.3%
- FCR, Mean ([3]; day 14-42, 50 ppm): 1.379^a
- Improvement on FCR compared to the negative control ([3]; overall period (day 0 to day 42), 50 mg/kg): 9.6%
- Improvement to FCR compared to NC ([3]; starter period, day 15 to day 42, 50 mg/kg): 11.3%
- Improvement of ADWG compared to the negative control diet ([3]; starter period, 50 mg/kg): 4.0%
- EPEF improvement compared to the negative control ([3]; whole period, 50 mg/kg): 13.0%
- Improvement of ADWG compared to the negative control diet ([3]; whole period, 50 mg/kg): 2.4%
